28 variants from PMC4624786 can be followed below.

B1: unnamed (parent)
chain 1: MSMPDAMPLPGVGEELKQAKEIEDAEKYSFMATVTKAPKKQIQFADDMQEFTKFPTKTGRRSLSRSISQSSTDSYSSAASYTDSSDDEVSPREKQQTNSKGSSNFCVKNIKQAEFGRREIEIAEQDMSALISLRKRAQGEKPLAGAKIVGCTHITAQTAVLIETLCALGAQCRWSACNIYSTQNEVAAALAEAGVAVFAWKGESEDDFWWCIDRCVNMDGWQANMILDDGGDLTHWVYKKYPNVFKKIRGIVEESVTGVHRLYQLSKAGKLCVPAMNVNDSVTKQKFDNLYCCRESILDGLKRTTDVMFGGKQVVVCGYGEVGKGCCAALKALGAIVYITEIDPICALQACMDGFRVVKLNEVIRQVDVVITCTGNKNVVTREHLDRMKNSCIVCNMGHSNTEIDVTSLRTPELTWERVRSQVDHVIWPDGKRVVLLAEGRLLNLSCSTVPTFVLSITATTQALALIELYNAPEGRYKQDVYLLPKKMDEYVASLHLPSFDAHLTELTDDQAKYLGLNKNGPFKPNYYRY
chain 2: MATPSNLGSSVLASKTKTKKKHFVAQKVKLFRASDPLLSVLMWGVNHSINELSHVQIPVMLMPDDFKAYSKIKVDNHLFNKENMPSHFKFKEYCPMVFRNLRERFGIDDQDFQNSLTRSAPLPNDSQARSGARFHTSYDKRYVIKTITSEDVAEMHNILKKYHQYIVECHGVTLLPQFLGMYRLNVDGVEIYVIVTRNVFSHRLSVYRKYDLKGSTVAREASDKEKAKELPTLKDNDFINEGQKIYIDDSNKKIFLEKLKKDVEFLAQLKLMDYSLLVGIHDVERAEQEEVECEENEGEEEGESDGAHPIGTPPDSPGNTLNSSPPLAPGEFDPNIDVYAIKCHENAPRKEVYFMAIIDILTHYDAKKKAAHAAKTVKHGAGAEISTVNPEQYSKRFLDFIGHILT
B2: unnamed (parent)
chain 1: B1 chain 1
chain 2: MASASSGPAAAGFSSLDAGAPAGTAAASGIKRATVSEGPSASVMPVKKIGHRSVDSSGETTYKKTTSSALKGAIQLGITHTVGSLSTKPERDVLMQDFYVVESIFFPSEGSNLTPAHHYNDFRFKTYAPVAFRYFRELFGIRPDDYLYSLCSEPLIELSNSGASGSLFYVSSDDEFIIKTVQHKEAEFLQKLLPGYYMNLNQNPRTLLPKFYGLYCVQAGGKNIRIVVMNNLLPRSVKMHMKYDLKGSTYKRRASQKEREKTLPTFKDLDFLQDIPDGLFLDADMYSALCKTLQRDCLVLQSFKIMDYSLLMSIHNMDHAQREPTSNDTQYSADTRRPAPQKALYSTAMESIQGEARRGGTVETEDHMGGIPARNNKGERLLLYIGIIDILQSYRFVKKLEHSWKALVHDGDTVSVHRPGFYAERFQRFMCNTVFKKIPLKPSPTKKFRSGPSFSRRSGPSGNSCTSQLMASGEHRAQVTTKAEVEPDVHLGRPDVLPQTPPLEEISEGSPVPGPSFSPVVGQPLQILNLSSTLEKLDVAESEFTH

Variants of B1 are the subject of one experiment. The experiment is described as follows: co-immunoprecipitation, Western blot quantification. Particulars: with partner chain of the complex shown; COS-7 cells; n = 4; parent: 100; read off a plot.
With chain 1 S84A, the percent of parent was 100 % of WT.
Consider chain 1 S71A, for which the percent of parent was 3 % of WT.
Consider chain 1 S64A, for which the percent of parent is 95 % of WT.
In the case of chain 1 S66A, the percent of parent is 71 % of WT.
Turning to chain 1 S70A, the percent of parent is 75 % of WT.
For the variant chain 1 T72A, the percent of parent was 67 % of WT.
As for chain 1 S85A, the percent of parent is 96 % of WT.
Take chain 1 S80A: the percent of parent is 79 % of WT.
Turning to chain 1 S90A, the percent of parent is 130 % of WT.
Same read-out and setting: then chain 1 S76G, with 51 % of WT; and chain 1 S74G, with 42 % of WT; and chain 1 T82A, with 107 % of WT.
The same measure, in the same setting: with chain 1 S77A the figure was 11 % of WT.
With chain 1 S68A, the percent of parent was 3 % of WT.

Variants of B2 are the subject of the next experiment. The description is as above. Particulars: with partner chain of the complex shown; COS-7 cells; n = 4; parent: 100; read off a plot.
With chain 1 S74G, the percent of parent was 14 % of WT.
Consider chain 1 S71A, for which the percent of parent is 3 % of WT.
For the variant chain 1 S84A, the percent of parent was 43 % of WT.
For chain 1 S76G, the percent of parent was 100 % of WT.
Consider chain 1 T72A, for which the percent of parent is 90 % of WT.
In the case of chain 1 S85A, the percent of parent was 81 % of WT.
With chain 1 S66A, the percent of parent was 49 % of WT.
In the case of chain 1 S64A, the percent of parent is 83 % of WT.
For the variant chain 1 T82A, the percent of parent is 26 % of WT.
Same read-out and setting: then chain 1 S68A, with 2 % of WT; and chain 1 S90A, with 120 % of WT; and chain 1 S70A, with 50 % of WT.
In the case of chain 1 S80A, the percent of parent was 57 % of WT.
In the case of chain 1 S77A, the percent of parent was 65 % of WT.
